Results from PMC10397247.
Blank lines part the entries; values can stand above or below the binder they belong to.

Key:
4H1985-AA = target: T1, 4H1985-AA; assay: two-hybrid library CCmax;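 note: natural log of median RNA to DNA barcode read ratio; higher means stronger binding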
T1 chain: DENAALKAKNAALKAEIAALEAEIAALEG

4H2187-AA = target: T2, 4H2187-AA; assay: two-hybrid library CCmax; settings: mean of both orientations;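 note: natural log of median RNA to DNA barcode read ratio; higher means stronger binding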
T2 chain: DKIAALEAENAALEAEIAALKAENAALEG

4H233-AA = target: T3, 4H233-AA; assay: two-hybrid library CCmax; settings: mean of both orientations;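 note: natural log of median RNA to DNA barcode read ratio; higher means stronger binding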
T3 chain: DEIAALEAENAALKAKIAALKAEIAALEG

4H2512-AA = target: T4, 4H2512-AA; assay: two-hybrid library CCmax; settings: mean of both orientations;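 note: natural log of median RNA to DNA barcode read ratio; higher means stronger binding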
T4 chain: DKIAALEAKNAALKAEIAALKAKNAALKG

4H2646-AA = target: T5, 4H2646-AA; assay: two-hybrid library CCmax; settings: mean of both orientations;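 note: natural log of median RNA to DNA barcode read ratio; higher means stronger binding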
T5 chain: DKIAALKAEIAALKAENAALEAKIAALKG

4H2687-AA = target: T6, 4H2687-AA; assay: two-hybrid library CCmax; settings: mean of both orientations;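 note: natural log of median RNA to DNA barcode read ratio; higher means stronger binding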
T6 chain: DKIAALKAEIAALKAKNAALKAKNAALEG

4H2705-AA = target: T7, 4H2705-AA; assay: two-hybrid library CCmax; settings: mean of both orientations
T7 chain: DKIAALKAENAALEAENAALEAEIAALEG

4H2758-AA = target: T8, 4H2758-AA; assay: two-hybrid library CCmax; settings: mean of both orientations
T8 chain: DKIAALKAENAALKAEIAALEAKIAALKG

4H278-AA = target: T9, 4H278-AA; assay: two-hybrid library CCmax; settings: mean of both orientations
T9 chain: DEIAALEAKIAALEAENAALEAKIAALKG

4H2873-AA = target: T10, 4H2873-AA; assay: two-hybrid library CCmax; settings: mean of both orientations
T10 chain: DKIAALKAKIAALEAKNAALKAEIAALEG

4H2985-AA = target: T11, 4H2985-AA; assay: two-hybrid library CCmax; settings: mean of both orientations
T11 chain: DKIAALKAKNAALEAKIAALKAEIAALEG

4H3134-AA = target: T12, 4H3134-AA; assay: two-hybrid library CCmax; settings: mean of both orientations
T12 chain: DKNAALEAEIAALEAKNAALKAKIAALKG

4H3409-AA = target: T13, 4H3409-AA; assay: two-hybrid library CCmax; settings: mean of both orientations
T13 chain: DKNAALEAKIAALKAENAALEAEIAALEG

4H3625-AA = target: T14, 4H3625-AA; assay: two-hybrid library CCmax; settings: mean of both orientations
T14 chain: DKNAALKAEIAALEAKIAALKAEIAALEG

4H390-AA = target: T15, 4H390-AA; assay: two-hybrid library CCmax; settings: mean of both orientations
T15 chain: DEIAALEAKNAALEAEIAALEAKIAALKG

4H3940-AA = target: T16, 4H3940-AA; assay: two-hybrid library CCmax; settings: mean of both orientations
T16 chain: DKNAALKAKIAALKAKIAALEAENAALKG

4H510-AA = target: T17, 4H510-AA; assay: two-hybrid library CCmax; settings: mean of both orientations
T17 chain: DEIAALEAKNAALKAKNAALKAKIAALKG

4H775-AA = target: T18, 4H775-AA; assay: two-hybrid library CCmax; settings: mean of both orientations
T18 chain: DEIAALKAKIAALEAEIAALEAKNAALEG

4H816-AA = target: T19, 4H816-AA; assay: two-hybrid library CCmax; settings: mean of both orientations
T19 chain: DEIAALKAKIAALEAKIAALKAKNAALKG

4H87-AA = target: T20, 4H87-AA; assay: two-hybrid library CCmax
T20 chain: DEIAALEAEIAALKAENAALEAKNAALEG

P4mS = target: T21, P4mS; assay: two-hybrid library CCNG1
T21 chain: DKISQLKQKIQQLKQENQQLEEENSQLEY

P5mS = target: T22, P5mS; assay: two-hybrid library CCNG1
T22 chain: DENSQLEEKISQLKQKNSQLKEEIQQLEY

P6mS = target: T23, P6mS; assay: two-hybrid library CCNG1
T23 chain: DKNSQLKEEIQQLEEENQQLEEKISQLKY

P7mS = target: T24, P7mS; assay: two-hybrid library CCNG1
T24 chain: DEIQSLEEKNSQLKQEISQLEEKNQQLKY

P8mS = target: T25, P8mS; assay: two-hybrid library CCNG1
T25 chain: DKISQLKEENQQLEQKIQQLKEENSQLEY

P9mS = target: T26, P9mS; assay: two-hybrid library CCNG1
T26 chain: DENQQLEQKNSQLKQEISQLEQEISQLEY

P2bHq = target: T27, P2bHq; assay: two-hybrid library CCNG1
T27 chain: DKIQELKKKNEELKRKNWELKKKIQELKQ

P4bHq = target: T28, P4bHq; assay: two-hybrid library CCNG1
T28 chain: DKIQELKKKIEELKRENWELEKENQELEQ

P5bHq = target: T29, P5bHq; assay: two-hybrid library CCNG1
T29 chain: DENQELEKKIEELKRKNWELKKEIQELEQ

P6bHq = target: T30, P6bHq; assay: two-hybrid library CCNG1
T30 chain: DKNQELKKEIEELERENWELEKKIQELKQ

P7bHq = target: T31, P7bHq; assay: two-hybrid library CCNG1
T31 chain: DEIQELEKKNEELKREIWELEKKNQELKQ

P8bHq = target: T32, P8bHq; assay: two-hybrid library CCNG1
T32 chain: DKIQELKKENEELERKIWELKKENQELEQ

P9bHq = target: T33, P9bHq; assay: two-hybrid library CCNG1
T33 chain: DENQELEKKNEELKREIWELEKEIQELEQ

- interaction score (4H1985-AA): -1.91
- interaction score (4H2187-AA): -2.04
- interaction score (4H233-AA): 0.704
- interaction score (4H2512-AA): -1.41
- interaction score (4H2646-AA): 0.352
- interaction score (4H2687-AA): -1.92
- interaction score (4H2705-AA): -1.05
- interaction score (4H2758-AA): 0.628
- interaction score (4H278-AA): -1.45
- interaction score (4H2873-AA): -1.18
- interaction score (4H2985-AA): -0.418
- interaction score (4H3134-AA): -0.682
- interaction score (4H3409-AA): -1.05
- interaction score (4H3625-AA): -0.122
- interaction score (4H390-AA): 1.06
- interaction score (4H3940-AA): -0.542
- interaction score (4H510-AA): -0.896
- interaction score (4H775-AA): -1.28
- interaction score (4H816-AA): -0.103
- interaction score (4H87-AA): -1.37
Binder: DENAALKAKNAALKAEIAALEAEIAALEG [4H1985-AA]

- interaction score (P4mS): -1.66
- interaction score (P5mS): -1.04
- interaction score (P6mS): -1.48
- interaction score (P7mS): -1.14
- interaction score (P8mS): -1.85
- interaction score (P9mS): -1.28
Binder: DKISQLKQKIQQLKQENQQLEEENSQLEY [P4mS]

- interaction score (P2bHq): 0.693
- interaction score (P4bHq): 0.0617
- interaction score (P5bHq): 0.419
- interaction score (P6bHq): 1.33
- interaction score (P7bHq): 0.668
- interaction score (P8bHq): 0.361
- interaction score (P9bHq): -1.74
Binder: DKIQELKKKNEELKRKNWELKKKIQELKQ [P2bHq]
